Data from patent US20260217833A1 (APTEVO RESEARCH AND DEVELOPMENT, published 2026).
Where two headings read alike, the source gives them in different places. Blank lines part the entries; values can stand above or below the binder they belong to.

How the values were obtained:
human CD40 full-length [1] = target: T1, human CD40 full-length (human, UniProt P25942 21-277); experiment: flow cytometry, CHOK1SV/human CD40 cells
T1 construct: Also used for CD40 of Daudi cells, of CD40-expressing HEK293 cells and of the BPS CD40/NFkB HEK293 reporter cells where the row says so; also called CD4001012; CHOK1SV/CD40

human CD40 ECD- HAC tag = target: T2, human CD40 ECD- HAC tag (human); experiment: SPR, binder captured on anti-human IgG, monomeric CD40 ECD injected, 1:1 fit
T2 construct: also called CD4001006; recombinant monomeric human CD40 ectodomain (ECD)

human CD40 full-length [2] = target: T1, human CD40 full-length; experiment: flow cytometry, CHOK1SV/human CD40 cells; remark: listed apart in the source
Cynomolgus CHOK1SV/CD40 = target: T3, Cynomolgus CHOK1SV/CD40; experiment: flow cytometry, CHOK1SV/cynomolgus CD40 cells
T3 construct: also called Cyno CD40 full-length; CD4001013
T3 receptor chain: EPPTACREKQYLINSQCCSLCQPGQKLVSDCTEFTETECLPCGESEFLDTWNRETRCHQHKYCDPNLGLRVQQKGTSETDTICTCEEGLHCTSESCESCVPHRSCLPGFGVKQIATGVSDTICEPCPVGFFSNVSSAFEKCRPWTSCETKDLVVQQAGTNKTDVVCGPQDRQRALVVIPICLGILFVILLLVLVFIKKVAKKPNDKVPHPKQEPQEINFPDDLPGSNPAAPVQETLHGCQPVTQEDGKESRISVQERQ

human CD40 full-length [3] = target: T1, human CD40 full-length; experiment: flow cytometry, CHOK1SV/human CD40 cells; remark: listed apart in the source
Target sequence in this assay (P25942 21-277): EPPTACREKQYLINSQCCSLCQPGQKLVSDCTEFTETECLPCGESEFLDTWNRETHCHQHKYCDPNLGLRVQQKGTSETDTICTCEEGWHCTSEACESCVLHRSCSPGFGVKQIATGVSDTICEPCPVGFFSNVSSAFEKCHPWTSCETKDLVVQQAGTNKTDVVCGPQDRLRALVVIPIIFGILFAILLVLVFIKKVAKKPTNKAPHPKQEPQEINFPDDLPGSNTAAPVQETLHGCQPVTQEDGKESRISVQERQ

B2: CD401137 (Fc fusion)
scFv: QIVMTQSPGTLSLSPGERATMTCKSSQSLLFSVNQKNYLAWYQQKPGQAPRLLIYWASTRESGVPDRFSGSGSGTDFTLTISRLEPEDAATYYCQHYYSYPWTFGAGTKLEIKGGGGSGGGGSGGGGSGGGGSQVQLVQSGAEVKKPGASVKVSCKASGYTFSTSWMEWVRQAPGQGLEWMGEILPGSGSTNYAQKFQGRVTMTRDTSTSTVYMELSSLRSEDTAVYYCARGDDGSYVRWYFDVWGQGTTVTVSS
notes: humanized 1D5 variant; also called CD4001137; not shown: human Fc (scFv-hFc format, scFv at the N-terminus) and its junction
- binding result (human CD40 full-length [1]): binds

B3: CD401135 (Fc fusion)
scFv: DIVMTQSPDSLALSLGERATMNCKSSQSLLFSVNQKNYLAWYQQKPGQPPKLLIYWASTRESGVPDRFSGSGSGTDFTLTISSLQAEDVAVYYCQHYYSYPWTFGQGTKLEIKGGGGSGGGGSGGGGSGGGGSQVQLVQSGAEVKKPGASVKVSCKASGYTFSTSWIEWVRQAPGQGLEWIGEILPGSGSTNYAQKFQGRATFTADTSTSTAYMELSSLRSEDTAVYYCARGDDGSYVRWYFDVWGQGTTVTVSS
notes: humanized 1D5 variant; also called CD4001135; not shown: human Fc (scFv-hFc format, scFv at the N-terminus) and its junction
- binding result (human CD40 full-length [1]): binds

B7: PC401133 (bispecific antibody)
scFv-Fc-scFv chain: DIQMTQSPSSLSASVGDRVTITCRASQDINKFLSWYQQKPGKAPKLLIHYTSSLQSGVPSRFSGSGSGTDFTLTISSLQPEDFATYYCLQYDNLYTFGQGTKLEIKGGGGSGGGGSGGGGSGGGGSEVQLVESGGGLVQPGGSLRLSCAASGFTFSDYGMAWVRQAPGKGLEWVSFITSLAYIIYYADSVKGRFTISRDNAKNSLYLQMNSLRAEDTAVYYCARNYGSSPYYFDYWGQGTLVTVSSEPKSSDKTHTCPPCPAPPAAAPSVFLFPPKPKDTLMISRTPEVTCVVVDVSHEDPEVKFNWYVDGVEVHNAKTKPREEQYNSTYRVVSVLTVLHQDWLNGKEYKCAVSNKALPAPIEKTISKAKGQPREPQVYTLPPSRDELTKNQVSLTCLVKGFYPSDIAVEWESNGQPENNYKTTPPVLDSDGSFFLYSKLTVDKSRWQQGNVFSCSVMHEALHNHYTQKSLSLSPGGGGSPSDIQMTQSPSSVSASVGDRVTITCRASQSLLFSVNQKNYLAWYQQKPGKAPKLLIYWASSLQSGVPSRFSGSGSGTDFTLTISSLQPEDFATYYCQHYYSYPWTFGQGTKVEIKGGGGSGGGGSGGGGSGGGGSQVQLVQSGAEVKKPGSSVKVSCKASGYTFSTSWIEWIRQAPGQGLEWMGSIQPGSGSTNYAQKFQGRVTITADTSTSTAYMELSSLRSEDTAVYYCARGDDGSYVRWYFDHWGQGTLVTVSS
notes: also called H-Leu52Gln
- binding result (human CD40 full-length [2]): binds
- binding result (Cynomolgus CHOK1SV/CD40): binds

B8: PC401132 (bispecific antibody)
scFv-Fc-scFv chain: DIQMTQSPSSLSASVGDRVTITCRASQDINKFLSWYQQKPGKAPKLLIHYTSSLQSGVPSRFSGSGSGTDFTLTISSLQPEDFATYYCLQYDNLYTFGQGTKLEIKGGGGSGGGGSGGGGSGGGGSEVQLVESGGGLVQPGGSLRLSCAASGFTFSDYGMAWVRQAPGKGLEWVSFITSLAYIIYYADSVKGRFTISRDNAKNSLYLQMNSLRAEDTAVYYCARNYGSSPYYFDYWGQGTLVTVSSEPKSSDKTHTCPPCPAPPAAAPSVFLFPPKPKDTLMISRTPEVTCVVVDVSHEDPEVKFNWYVDGVEVHNAKTKPREEQYNSTYRVVSVLTVLHQDWLNGKEYKCAVSNKALPAPIEKTISKAKGQPREPQVYTLPPSRDELTKNQVSLTCLVKGFYPSDIAVEWESNGQPENNYKTTPPVLDSDGSFFLYSKLTVDKSRWQQGNVFSCSVMHEALHNHYTQKSLSLSPGGGGSPSDIQMTQSPSSVSASVGDRVTITCRASQSLLFSVNQKNYLAWYQQKPGKAPKLLIYWASSLQSGVPSRFSGSGSGTDFTLTISSLQPEDFATYYCQHYYSYPWTFGQGTKVEIKGGGGSGGGGSGGGGSGGGGSQVQLVQSGAEVKKPGSSVKVSCKASGYTFSTSWIEWIRQAPGQGLEWMGSINPGSGSTNYAQKFQGRVTITADTSTSTAYMELSSLRSEDTAVYYCARGDDGSYVRWYFDHWGQGTLVTVSS
notes: also called H-Leu52Asn
- binding result (human CD40 full-length [2]): binds
- binding result (Cynomolgus CHOK1SV/CD40): binds

B9: CD4001100 (Fc fusion)
chain: DVQMTQSPILLSASVGDRVTITCRSSQSLVHYNGYTYVHWYQQRTNGSPRLLIYKVSNRFSGVPDRFSGSGSGTDFTLTISSLQPEDIADYFCQQTTHVPLTFGAGTKVEIKGGGGSGGGGSGGGGSGGGGSEVQLVESGGGLEQPGGSLRLSCAASGFTFSSYAMSWVRQAPGKGLEWVASISSAGTYIYYADSVKGRFTISRDNSKNTLYLQMNSLRAEDTAVYYCARHGNGYDPLWYFDVWGQGTTVTVSS
notes: As m65; not shown: wildtype IgG1 Fc region
- binding result (human CD40 full-length [3]): binds
- Kd (human CD40 ECD- HAC tag): 21 nM
- koff (human CD40 ECD- HAC tag): 0.006 s⁻¹
- kon (human CD40 ECD- HAC tag): 290000 M⁻¹ s⁻¹

B10: CD4001132 (Fc fusion)
chain: DVQMTQSPILLSASVGDRVTITCRSSQSLVHYNGYTYVHWYQQKPGKAPKLLIYKVSNLFSGVPSRFSGSGSGTDFTLTISSLQPEDIADYFCQQTTHVPLTFGAGTKVEIKGGGGSGGGGSGGGGSGGGGSEVQLVESGGGLVQPGGSLRLSCAASGFTFSSYAMSWVRQAPGKGLEWVSAISSAGTYIYYADSVKGRFTISRDNSKNTLYLQMNSLRAEDTAVYYCARHGNGYDPLWYFDVWGQGTTVTVSS
notes: as for B9
- EC50 (read off the curve) (human CD40 full-length [1]): ~5 nM
- kon (human CD40 ECD- HAC tag): 240000 M⁻¹ s⁻¹

More lines, now with the values ahead:

- binding result (human CD40 full-length [1]): binds
B1: CD401136 (Fc fusion)
scFv: DIVMTQSPDSLALSLGERATMNCKSSQSLLFSVNQKNYLAWYQQKPGQPPKLLIYWASTRESGVPDRFSGSGSGTDFTLTISSLQAEDVAVYYCQHYYSYPWTFGQGTKLEIKGGGGSGGGGSGGGGSGGGGSQVQLVQSGAEVKKPGASVKVSCKASGYTFSTSWMEWVRQAPGQGLEWMGEILPGSGSTNYAQKFQGRVTMTRDTSTSTVYMELSSLRSEDTAVYYCARGDDGSYVRWYFDVWGQGTTVTVSS
notes: humanized 1D5 variant; also called CD4001136; not shown: human Fc (scFv-hFc format, scFv at the N-terminus) and its junction

- binding result (human CD40 full-length [1]): binds
B4: CD401134 (Fc fusion)
scFv: DIVMTQSPDSLALSLGERATMNCKSSQSLLFSVNQKNYLAWYQQKPGQPPKLLIYWASTRESGVPDRFSGSGSGTDFTLTISSLQAEDVAVYYCQHYYSYPWTFGQGTKLEIKGGGGSGGGGSGGGGSGGGGSQVKLVQSGAEVKKPGASVKVSCKASGYTFSTSWIEWIRQAPGQGLEWIGEILPGSGSTNYAQKFQGRATFTADTSTSTAYMELSSLRSEDTAVYYCARGDDGSYVRWYFDVWGQGTTVTVSS
notes: humanized 1D5 variant; also called CD4001134; not shown: human Fc (scFv-hFc format, scFv at the N-terminus) and its junction

- EC50 (read off the curve) (human CD40 full-length [1]): ~7 nM
- Kd (human CD40 ECD- HAC tag): 85 nM
- koff (human CD40 ECD- HAC tag): 0.019 s⁻¹
- kon (human CD40 ECD- HAC tag): 230000 M⁻¹ s⁻¹
B5: CD4001133 (Fc fusion)
VH: EVQLVESGGGLVQPGGSLRLSCAASGFTFSSYAMSWVRQAPGKGLEWVSAISSAGTYIYYADSVKGRFTISRDNSKNTLYLQMNSLRAEDTAVYYCARHGNGYDPLWYFDVWGQGTTVTVSS
VL: DIQMTQSPSSLSASVGDRVTITCRASQSLVHYNGYTYLNWYQQKPGKAPKLLIYKVSNRFSGVPDRFSGSGSGTDFTLTISSLQPEDFATYYCQQTTHVPLTFGQGTKVEIK
notes: Tested as scFv on the N-terminus of a wildtype IgG1 Fc region; also called Humanized 5B9

- binding result (human CD40 full-length [2]): binds
- binding result (Cynomolgus CHOK1SV/CD40): binds
B6: PC401129 (bispecific antibody)
scFv-Fc-scFv chain: DIQMTQSPSSLSASVGDRVTITCRASQDINKFLSWYQQKPGKAPKLLIHYTSSLQSGVPSRFSGSGSGTDFTLTISSLQPEDFATYYCLQYDNLYTFGQGTKLEIKGGGGSGGGGSGGGGSGGGGSEVQLVESGGGLVQPGGSLRLSCAASGFTFSDYGMAWVRQAPGKGLEWVSFITSLAYIIYYADSVKGRFTISRDNAKNSLYLQMNSLRAEDTAVYYCARNYGSSPYYFDYWGQGTLVTVSSEPKSSDKTHTCPPCPAPPAAAPSVFLFPPKPKDTLMISRTPEVTCVVVDVSHEDPEVKFNWYVDGVEVHNAKTKPREEQYNSTYRVVSVLTVLHQDWLNGKEYKCAVSNKALPAPIEKTISKAKGQPREPQVYTLPPSRDELTKNQVSLTCLVKGFYPSDIAVEWESNGQPENNYKTTPPVLDSDGSFFLYSKLTVDKSRWQQGNVFSCSVMHEALHNHYTQKSLSLSPGGGGSPSDIQMTQSPSSVSASVGDRVTITCRASQSLNFSVNQKNYLAWYQQKPGKAPKLLIYWASSLQSGVPSRFSGSGSGTDFTLTISSLQPEDFATYYCQHYYSYPWTFGQGTKVEIKGGGGSGGGGSGGGGSGGGGSQVQLVQSGAEVKKPGSSVKVSCKASGYTFSTSWIEWIRQAPGQGLEWMGSILPGSGSTNYAQKFQGRVTITADTSTSTAYMELSSLRSEDTAVYYCARGDDGSYVRWYFDHWGQGTLVTVSS
notes: also called L-Leu30Asn

- binding result (Cynomolgus CHOK1SV/CD40): binds
B11: CD4001242 (Fc fusion)
chain: EPKSSDKTHTCPPCPAPPAAAPSVFLFPPKPKDTLMISRTPEVTCVVVDVSHEDPEVKFNWYVDGVEVHNAKTKPREEQYNSTYRVVSVLTVLHQDWLNGKEYKCAVSNKALPAPIEKTISKAKGQPREPQVYTLPPSRDELTKNQVSLTCLVKGFYPSDIAVEWESNGQPENNYKTTPPVLDSDGSFFLYSKLTVDKSRWQQGNVFSCSVMHEALHNHYTQKSLSLSPGGGGSPSDIQMTQSPSSVSASVGDRVTITCRASQSLLFSVNQKNYLAWYQQKPGKAPKLLIYWASSLQSGVPSRFSGSGSGTDFTLTISSLQPEDFATYYCQHYYSYPWTFGQGTKVEIKGGGGSGGGGSGGGGSGGGGSQVQLVQSGAEVKKPGSSVKVSCKASGYTFSTSWIEWIRQAPGQGLEWMGSILPGSGSTNYAQKFQGRVTITADTSTSTAYMELSSLRSEDTAVYYCARGDDGSYVRWYFDHWGQGTLVTVSS
notes: also called final humanized version of 1D5
